From the supplement of paper PMC7877785
± gives the uncertainty stated by the source.

Test: self-splicing fitness, log relative to wild type (ln ratio); higher = more splicing; Tetrahymena group I intron in knt gene, E. coli kanamycin selection, DiMSum; sequences stand for … in CUCUCU…GGAGGGAAAAGUUAUCAGGCAUGCACCUGGUAGCUAGUCUUUAAACCAAUAGAUUGCAUCGGUUUAAAAGGCAAGACCGUCAAAUUGCGGGAAAGGGGUCAACAGCCGUUCAGUACCAAGUCUCAGGGGAAACUUUGAGAUGGCCUUGCAAAGGGUAUGGUAAUAAGCUGACGGACAUGGUCCUAACCACGCAGCCAAGUCCUAAGUCAACAGAUCUUCUGUUGAUAUGGAUGCAGUUCACAGACUAAAUGUCGGUCGGGGAAGAUGUAUUCUUCUCAUAAGAUAUAGUCGGACCUCUCCUUAAUGGGAGCUAGCGGAUGAAGUGAUGCAACACUGGAGCCGCUGGGAACUAAUUUGUAUGCGAAAGUAUAUUGAUUAGUUUUGGAGUACUCGUGGUCG
Outline: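 Library with all eight P1ex-region intron nucleotides randomised, intron inside the knt kanamycin-resistance gene on pET-22b(+), in E. coli BL21(DE3). Cells grew overnight at 37°C or 30°C on LB agar with or without 25 μg/mL kanamycin (plus 100 μg/mL carbenicillin, 50 μM IPTG, 0.2% rhamnose), in six replicate transformations. Pooled colonies were amplicon-sequenced on Illumina HiSeq 2500. DiMSum fitness is the error-weighted combination of wild-type-normalised replicate fold changes, kanamycin versus none.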

Sequence	self-splicing fitness (ln) (30 °C)	self-splicing fitness (ln) (37 °C)
GACAAGCAAUAUUACGAUUU	-0.222 ± 0.063	0.406 ± 0.081
GGAUAGCAAUAUUACGAUCU	-1.25 ± 0.4	-2.24 ± 0.43
GGGUAGCAAUAUUACGUUCC		-2.09 ± 0.46
UGGCAGCAAUAUUACGUGUA	-1.54 ± 0.089	-0.712 ± 0.084
CCUCAGCAAUAUUACGGGUA	-3.23 ± 0.18	-1.9 ± 0.14
CGGCAGCAAUAUUACGGUGU	-4.04 ± 0.2	-2.55 ± 0.17
AAUGAGCAAUAUUACGGUAA	-1.61 ± 0.34	-2.24 ± 0.4
GCUAAGCAAUAUUACGAUGA	-0.837 ± 0.09	-0.253 ± 0.1
UUGAAGCAAUAUUACGUCUU	-3.1 ± 0.18	-1.24 ± 0.12
CAUGAGCAAUAUUACGGACA	-3.32 ± 0.48	-0.812 ± 0.25
CCUCAGCAAUAUUACGAGGC		-2.19 ± 0.31
UGGAAGCAAUAUUACGCGUA	-1.21 ± 0.11	-0.131 ± 0.15
UACCAGCAAUAUUACGUCUC	-2.4 ± 0.14	-2.26 ± 0.18
UGACAGCAAUAUUACGCUGC	-4.45 ± 0.25	-2.65 ± 0.18
GCCGAGCAAUAUUACGUUAA	-3.34 ± 0.27	-1.78 ± 0.18
CACAAGCAAUAUUACGUAAA	-3.74 ± 0.21	-2.39 ± 0.23
UGACAGCAAUAUUACGGCGU	-2.71 ± 0.15	-1.67 ± 0.16
GAGGAGCAAUAUUACGUUAA	-2.94 ± 0.36	-1.65 ± 0.21
GACAAGCAAUAUUACGUGAU	-1.77 ± 0.071	-1.17 ± 0.09
GAUUAGCAAUAUUACGCUGU	-2.84 ± 0.28	-1.74 ± 0.31
CUCAAGCAAUAUUACGGGUA	-2.42 ± 0.14	-1.01 ± 0.1
CUCAAGCAAUAUUACGGUGG	-2.01 ± 0.061	-1.1 ± 0.081
AUAUAGCAAUAUUACGGUUA	-1.12 ± 0.13	-0.372 ± 0.12
CCUUAGCAAUAUUACGUUAC	-3.65 ± 0.35	-2.91 ± 0.29
GUGUAGCAAUAUUACGCCGG	-2.93 ± 0.27	-2.16 ± 0.38
CGUUAGCAAUAUUACGUCUA	-3 ± 0.28	-2.33 ± 0.24

Sequence	self-splicing fitness (ln) (30 °C)	self-splicing fitness (ln) (37 °C)
CGAAAGCAAUAUUACGUCUU	-2.8 ± 0.13	-1.87 ± 0.16
GACCAGCAAUAUUACGGACA	-0.345 ± 0.078	-0.496 ± 0.081
ACAUAGCAAUAUUACGCGUC	-3.71 ± 0.18	-3.26 ± 0.28
UUCCAGCAAUAUUACGUUUG	-4.67 ± 0.46	-2.83 ± 0.24
GUGAAGCAAUAUUACGGCAA	0.587 ± 0.084	0.552 ± 0.11
UCAGAGCAAUAUUACGCAUA	-3.19 ± 0.42	
GUCAAGCAAUAUUACGUCAA	-2.48 ± 0.1	-1.87 ± 0.11
AUAUAGCAAUAUUACGUCUC	-3.22 ± 0.36	-1.51 ± 0.28
GUAAAGCAAUAUUACGGGCA	-0.131 ± 0.13	-0.0319 ± 0.15
CUGCAGCAAUAUUACGGGGC	-3.94 ± 0.22	-1.83 ± 0.18
GACUAGCAAUAUUACGUAGG	-1.95 ± 0.091	-1.03 ± 0.11
UACAAGCAAUAUUACGAUAC	-3.7 ± 0.44	-2.34 ± 0.25
GGUUAGCAAUAUUACGCACU	-2.48 ± 0.28	-2.32 ± 0.25
GGACAGCAAUAUUACGUUAG	-1.24 ± 0.066	-0.49 ± 0.085
CACCAGCAAUAUUACGAGAC		-2.02 ± 0.32
UGGAAGCAAUAUUACGAUCG	0.288 ± 0.14	0.382 ± 0.15
AACUAGCAAUAUUACGGGGC	-3.61 ± 0.23	-3.1 ± 0.35
UUCCAGCAAUAUUACGGUCG	-0.395 ± 0.081	0.623 ± 0.11
AUGUAGCAAUAUUACGUUGG	-2.21 ± 0.12	-1.8 ± 0.17
ACCGAGCAAUAUUACGCGUA	-2.38 ± 0.14	-0.999 ± 0.12
AUAUAGCAAUAUUACGUAUA	-2.12 ± 0.23	-0.454 ± 0.17
GUCGAGCAAUAUUACGAGCU	-2 ± 0.42	
CAUAAGCAAUAUUACGCCCG	-0.556 ± 0.16	-0.0931 ± 0.22
AUUUAGCAAUAUUACGAUAU	-1.34 ± 0.097	-0.998 ± 0.11
CCUGAGCAAUAUUACGACUA	-2.81 ± 0.25	-1.79 ± 0.24
GAGCAGCAAUAUUACGACCG	-2.42 ± 0.12	-1.27 ± 0.15

Sequence	self-splicing fitness (ln) (30 °C)	self-splicing fitness (ln) (37 °C)
AAGUAGCAAUAUUACGGCAA	0.196 ± 0.18	-0.154 ± 0.22
AUCGAGCAAUAUUACGACCA	-2.06 ± 0.22	-0.741 ± 0.28
CUCGAGCAAUAUUACGGGGU	-3.46 ± 0.18	-2.54 ± 0.22
UGACAGCAAUAUUACGCGCC	-1.63 ± 0.12	-0.153 ± 0.15
AUCCAGCAAUAUUACGCAUC	-2.92 ± 0.18	-1.97 ± 0.14
UUCGAGCAAUAUUACGAGAC	-0.119 ± 0.49	
UCGUAGCAAUAUUACGCCUG	-0.246 ± 0.12	0.322 ± 0.13
CACUAGCAAUAUUACGCCUA	-3.31 ± 0.19	-2.36 ± 0.16
AACGAGCAAUAUUACGUAAC	-2.83 ± 0.2	-1.83 ± 0.44
CGAGAGCAAUAUUACGGAUC	-3.76 ± 0.38	-1.51 ± 0.28
AUCAAGCAAUAUUACGCUUG	-4.23 ± 0.39	-2.6 ± 0.22
GGACAGCAAUAUUACGUACG	-0.876 ± 0.12	0.399 ± 0.18
UCAUAGCAAUAUUACGAUUU	-3.45 ± 0.22	-2.24 ± 0.22
CAAUAGCAAUAUUACGAUAC	-3.17 ± 0.19	-2.41 ± 0.16
AGUCAGCAAUAUUACGCCGA	-1.92 ± 0.25	-1.92 ± 0.3
AAGAAGCAAUAUUACGAGCU	-0.998 ± 0.087	-1.22 ± 0.11
UAAAAGCAAUAUUACGCUGA	-2.35 ± 0.2	-0.613 ± 0.14
UGGCAGCAAUAUUACGAUAC	-3.31 ± 0.48	-1.99 ± 0.38
UGAUAGCAAUAUUACGCACC	-1.02 ± 0.15	-0.277 ± 0.22
AUCGAGCAAUAUUACGCCCA	-1.77 ± 0.24	-1.37 ± 0.3
GCACAGCAAUAUUACGGGCU	-3.81 ± 0.24	-1.77 ± 0.12
UCUAAGCAAUAUUACGCUGA	-3.56 ± 0.41	-2.52 ± 0.33
CUUAAGCAAUAUUACGAGGA	-2.64 ± 0.34	-3.43 ± 0.46
CCUCAGCAAUAUUACGUUCU	-4.28 ± 0.34	-3.23 ± 0.36
UGUCAGCAAUAUUACGUGUG	-0.636 ± 0.048	0.0859 ± 0.065
